The numbers were not newly measured in PMC9785887, which cites them from elsewhere.

pKd, pKi: −log10 of the molar value.

In series [1] the target is Neuropilin-1 (Homo sapiens) (UniProt O14786).
Series [2] deals with Integrin αvβ6 (Homo sapiens) (UniProt P06756).
Chain of UniProt P06756 (P06756 31-992, chain 1 of 2): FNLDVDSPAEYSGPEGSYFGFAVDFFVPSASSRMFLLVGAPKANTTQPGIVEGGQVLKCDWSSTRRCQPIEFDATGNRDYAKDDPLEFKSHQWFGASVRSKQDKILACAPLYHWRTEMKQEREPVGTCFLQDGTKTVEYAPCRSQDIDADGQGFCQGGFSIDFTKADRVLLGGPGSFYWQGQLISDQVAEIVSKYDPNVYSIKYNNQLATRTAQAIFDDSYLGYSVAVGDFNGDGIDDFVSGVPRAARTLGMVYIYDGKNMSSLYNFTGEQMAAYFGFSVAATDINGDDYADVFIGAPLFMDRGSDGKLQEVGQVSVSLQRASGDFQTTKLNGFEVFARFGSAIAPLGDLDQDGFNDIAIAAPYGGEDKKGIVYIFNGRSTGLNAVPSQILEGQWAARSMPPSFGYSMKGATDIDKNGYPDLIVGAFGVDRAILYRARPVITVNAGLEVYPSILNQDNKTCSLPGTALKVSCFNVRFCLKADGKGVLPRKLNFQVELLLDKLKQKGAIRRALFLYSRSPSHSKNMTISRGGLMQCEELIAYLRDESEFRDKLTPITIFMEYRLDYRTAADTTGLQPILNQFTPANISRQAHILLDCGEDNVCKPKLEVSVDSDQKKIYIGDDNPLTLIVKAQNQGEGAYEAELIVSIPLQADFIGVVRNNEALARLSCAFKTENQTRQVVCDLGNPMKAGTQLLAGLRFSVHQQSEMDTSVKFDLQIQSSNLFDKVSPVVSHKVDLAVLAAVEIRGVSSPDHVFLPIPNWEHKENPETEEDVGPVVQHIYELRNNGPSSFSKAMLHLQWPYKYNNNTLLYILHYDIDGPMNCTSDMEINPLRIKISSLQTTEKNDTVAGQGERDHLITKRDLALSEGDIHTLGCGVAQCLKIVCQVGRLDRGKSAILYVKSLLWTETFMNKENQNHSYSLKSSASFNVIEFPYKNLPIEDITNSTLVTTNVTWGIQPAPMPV
Chain of UniProt P06756 (P18564 22-709, chain 2 of 2, further chain): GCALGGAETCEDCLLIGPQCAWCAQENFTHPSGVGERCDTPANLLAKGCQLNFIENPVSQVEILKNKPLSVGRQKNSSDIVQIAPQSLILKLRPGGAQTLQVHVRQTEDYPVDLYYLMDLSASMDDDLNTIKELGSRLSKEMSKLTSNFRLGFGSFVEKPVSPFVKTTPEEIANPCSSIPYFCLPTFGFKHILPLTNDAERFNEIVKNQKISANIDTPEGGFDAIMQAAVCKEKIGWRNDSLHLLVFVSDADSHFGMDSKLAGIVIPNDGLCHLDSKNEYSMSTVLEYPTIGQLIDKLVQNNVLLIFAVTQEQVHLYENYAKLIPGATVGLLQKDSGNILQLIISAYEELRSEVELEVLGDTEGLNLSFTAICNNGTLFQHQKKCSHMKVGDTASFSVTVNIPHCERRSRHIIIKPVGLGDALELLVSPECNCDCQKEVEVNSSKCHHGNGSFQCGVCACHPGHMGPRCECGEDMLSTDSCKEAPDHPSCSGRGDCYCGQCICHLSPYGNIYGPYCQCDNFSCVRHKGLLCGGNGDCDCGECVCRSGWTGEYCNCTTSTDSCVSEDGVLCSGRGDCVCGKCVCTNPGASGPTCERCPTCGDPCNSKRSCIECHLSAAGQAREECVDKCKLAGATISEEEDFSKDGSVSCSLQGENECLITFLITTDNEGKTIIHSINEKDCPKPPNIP

Chain of UniProt O14786 (O14786 22-856): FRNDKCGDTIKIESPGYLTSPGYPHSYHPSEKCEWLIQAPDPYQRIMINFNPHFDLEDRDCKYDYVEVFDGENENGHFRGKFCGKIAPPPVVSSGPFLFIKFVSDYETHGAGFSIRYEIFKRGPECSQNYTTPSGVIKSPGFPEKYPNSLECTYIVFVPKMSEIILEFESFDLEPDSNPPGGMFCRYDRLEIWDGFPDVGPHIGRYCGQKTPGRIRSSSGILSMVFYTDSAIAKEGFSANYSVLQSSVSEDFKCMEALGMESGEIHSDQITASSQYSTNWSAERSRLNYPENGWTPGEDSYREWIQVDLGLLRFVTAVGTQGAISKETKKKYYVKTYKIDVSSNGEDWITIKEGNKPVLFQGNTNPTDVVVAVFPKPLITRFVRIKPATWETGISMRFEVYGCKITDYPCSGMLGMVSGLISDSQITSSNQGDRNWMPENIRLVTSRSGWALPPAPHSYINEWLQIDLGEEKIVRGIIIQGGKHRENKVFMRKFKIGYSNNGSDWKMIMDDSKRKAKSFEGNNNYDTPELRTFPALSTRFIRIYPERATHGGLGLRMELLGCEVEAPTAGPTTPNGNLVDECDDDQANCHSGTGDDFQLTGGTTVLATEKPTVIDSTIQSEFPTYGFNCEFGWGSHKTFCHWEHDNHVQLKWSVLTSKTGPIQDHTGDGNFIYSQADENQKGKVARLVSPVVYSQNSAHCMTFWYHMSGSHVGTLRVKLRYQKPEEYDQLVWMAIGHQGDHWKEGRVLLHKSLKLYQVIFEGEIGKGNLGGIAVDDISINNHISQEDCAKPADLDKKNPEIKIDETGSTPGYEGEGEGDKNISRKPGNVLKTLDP
Chain of Chromogranin A peptide CgA39-63 (P10645 57-81): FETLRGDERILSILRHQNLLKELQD

As for “Chromogranin A 1-373 1-373 (from UniProt P10645)”, in series [1], the pKd is 8.46. Take Chromogranin A peptide CgA39-63: the pKi in series [2] was 7.81.

In general, pKd refers to the Kd on a negative log10 scale, so that one unit is a factor of ten. Broadly, the pKi is −log10 of the Ki, conventionally taken in molar units.
